The text below walks through data of article PMC11316641 (Cell, 2024).

Usually Kd stands for a measure of binding affinity in units of concentration. A higher Kd goes with lower affinity. The stoichiometry N is the number of molecules, sites or subunits per partner or assembly.

Series [1] concerns the target WDR11-FAM91A1 complex (human) (UniProt Q658Y4). As to the kind of experiment: BLI. (In BLI a coated tip is dipped into the sample, and binding shifts an interference pattern.)
The series “SEC-MALS” deals with the molecule itself. As to the kind of experiment: SEC-MALS. (In gel filtration, larger molecules generally elute earlier.)

Chain of WDR11-FAM91A1 complex (human) (Q658Y4 whole entry, one chain of several): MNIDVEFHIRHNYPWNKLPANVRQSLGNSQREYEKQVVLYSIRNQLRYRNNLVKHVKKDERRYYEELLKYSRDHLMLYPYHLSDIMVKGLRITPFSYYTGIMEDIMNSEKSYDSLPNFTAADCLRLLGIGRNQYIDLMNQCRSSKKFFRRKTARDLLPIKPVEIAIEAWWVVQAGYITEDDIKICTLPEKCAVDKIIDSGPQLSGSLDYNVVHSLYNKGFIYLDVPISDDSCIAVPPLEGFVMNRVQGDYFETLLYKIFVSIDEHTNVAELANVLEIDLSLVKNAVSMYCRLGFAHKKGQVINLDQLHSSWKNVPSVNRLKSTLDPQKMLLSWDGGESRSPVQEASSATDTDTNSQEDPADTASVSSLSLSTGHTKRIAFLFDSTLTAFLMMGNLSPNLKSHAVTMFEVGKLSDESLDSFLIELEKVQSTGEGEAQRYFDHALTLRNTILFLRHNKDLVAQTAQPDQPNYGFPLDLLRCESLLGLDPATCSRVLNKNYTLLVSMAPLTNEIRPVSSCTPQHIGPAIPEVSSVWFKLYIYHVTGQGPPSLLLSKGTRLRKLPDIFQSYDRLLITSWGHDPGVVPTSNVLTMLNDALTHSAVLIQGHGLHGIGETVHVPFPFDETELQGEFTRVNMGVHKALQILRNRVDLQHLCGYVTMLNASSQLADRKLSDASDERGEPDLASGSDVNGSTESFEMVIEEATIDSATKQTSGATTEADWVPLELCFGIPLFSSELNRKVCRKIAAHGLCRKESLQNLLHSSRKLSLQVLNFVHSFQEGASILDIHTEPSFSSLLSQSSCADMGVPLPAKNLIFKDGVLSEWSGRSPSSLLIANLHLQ

As to CI-MPR AC1-WT peptide, in series [1], the dissociation constant (Kd) came out at 20.8 µM.

B1: WDR11 (natural protein, human)
chain: MLPYTVNFKVSARTLTGALNAHNKAAVDWGWQGLIAYGCHSLVVVIDSITAQTLQVLEKHKADVVKVKWARENYHHNIGSPYCLRLASADVNGKIIVWDVAAGVAQCEIQEHAKPIQDVQWLWNQDASRDLLLAIHPPNYIVLWNADTGTKLWKKSYADNILSFSFDPFDPSHLTLLTSEGIVFISDFSPSKPPSGPGKKVYISSPHSSPAHNKLATATGAKKALNKVKILITQEKPSAEFITLNDCLQLAYLPSKRNHMLLLYPREILILDLEVNQTVGVIAIERTGVPFLQVIPCFQRDGLFCLHENGCITLRVRRSYNNIFTTSNEEPDPDPVQELTYDLRSQCDAIRVTKTVRPFSMVCCPVNENAAALVVSDGRVMIWELKSAVCNRNSRNSSSGVSPLYSPVSFCGIPVGVLQNKLPDLSLDNMIGQSAIAGEEHPRGSILREVHLKFLLTGLLSGLPAPQFAIRMCPPLTTKNIKMYQPLLAVGTSNGSVLVYHLTSGLLHKELSIHSCEVKGIEWTSLTSFLSFATSTPNNMGLVRNELQLVDLPTGRSIAFRGERGNDESAIEMIKVSHLKQYLAVVFRDKPLELWDVRTCTLLREMSKNFPTITALEWSPSHNLKSLRKKQLATREAMARQTVVSDTELSIVESSVISLLQEAESKSELSQNISAREHFVFTDIDGQVYHLTVEGNSVKDSARIPPDGSMGSITCIAWKGDTLVLGDMDGNLNFWDLKGRVSRGIPTHRSWVRKIRFAPGKGNQKLIAMYNDGAEVWDTKEVQMVSSLRSGRNVTFRILDVDWCTSDKVILASDDGCIRVLEMSMKSACFRMDEQELTEPVWCPYLLVPRASLALKAFLLHQPWNGQYSLDISHVDYPENEEIKNLLQEQLNSLSNDIKKLLLDPEFTLLQRCLLVSRLYGDESELHFWTVAAHYLHSLSQEKSASTTAPKEAAPRDKLSNPLDICYDVLCENAYFQKFQLERVNLQEVKRSTYDHTRKCTDQLLLLGQTDRAVQLLLETSADNQHYYCDSLKACLVTTVTSSGPSQSTIKLVATNMIANGKLAEGVQLLCLIDKAADACRYLQTYGEWNRAAWLAKVRLNPEECADVLRRWVDHLCSPQVNQKSKALLVLLSLGCFFSVAETLHSMRYFDRAALFVEACLKYGAFEVTEDTEKLITAIYADYARSLKNLGFKQGAVLFASKAGAAGKDLLNELESPKEEPIEE
With B1, in the series “SEC-MALS”, the “stoichiometry N” value turned out to be 2.
